In patent US20060073152A1:

Legend:
Assay in all cases: peptide competition for albumin
[1] = target: mouse serum albumin (mouse), P07724
[2] = target: T1, rabbit serum albumin (rabbit), P49065
T1 chain: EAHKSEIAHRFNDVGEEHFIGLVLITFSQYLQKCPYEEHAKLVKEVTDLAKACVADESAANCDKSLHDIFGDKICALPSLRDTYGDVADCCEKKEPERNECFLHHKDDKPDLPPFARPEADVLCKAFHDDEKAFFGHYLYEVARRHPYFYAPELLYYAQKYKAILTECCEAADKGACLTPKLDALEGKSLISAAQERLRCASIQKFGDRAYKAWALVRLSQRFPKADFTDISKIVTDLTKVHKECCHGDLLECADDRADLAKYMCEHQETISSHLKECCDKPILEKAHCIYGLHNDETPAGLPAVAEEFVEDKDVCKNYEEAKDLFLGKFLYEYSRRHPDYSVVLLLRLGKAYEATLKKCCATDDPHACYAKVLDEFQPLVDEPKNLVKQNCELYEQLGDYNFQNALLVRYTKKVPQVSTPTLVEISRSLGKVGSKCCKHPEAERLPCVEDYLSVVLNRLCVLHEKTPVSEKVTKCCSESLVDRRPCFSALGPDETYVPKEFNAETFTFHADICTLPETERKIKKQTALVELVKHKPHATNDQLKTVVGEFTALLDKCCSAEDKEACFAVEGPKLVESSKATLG

[3] = target: T2, rat serum albumin (rat), P02770
T2 chain: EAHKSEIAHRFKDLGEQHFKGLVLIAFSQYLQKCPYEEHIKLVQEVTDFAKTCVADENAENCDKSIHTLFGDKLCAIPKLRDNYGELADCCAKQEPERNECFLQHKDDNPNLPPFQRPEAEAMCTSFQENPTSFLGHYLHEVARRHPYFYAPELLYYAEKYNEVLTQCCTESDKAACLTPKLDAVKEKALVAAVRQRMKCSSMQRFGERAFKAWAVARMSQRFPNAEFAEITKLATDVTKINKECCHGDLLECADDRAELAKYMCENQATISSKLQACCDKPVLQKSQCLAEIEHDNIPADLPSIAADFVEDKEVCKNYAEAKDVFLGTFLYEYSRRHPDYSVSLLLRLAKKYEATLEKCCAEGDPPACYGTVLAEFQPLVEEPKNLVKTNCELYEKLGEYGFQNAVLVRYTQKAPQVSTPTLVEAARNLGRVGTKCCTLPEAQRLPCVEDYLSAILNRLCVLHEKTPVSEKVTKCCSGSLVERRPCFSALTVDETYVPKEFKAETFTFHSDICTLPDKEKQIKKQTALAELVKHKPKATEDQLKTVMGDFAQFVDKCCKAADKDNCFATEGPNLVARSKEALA

Chain of mouse serum albumin (mouse), P07724 (P07724 25-608 limits assumed): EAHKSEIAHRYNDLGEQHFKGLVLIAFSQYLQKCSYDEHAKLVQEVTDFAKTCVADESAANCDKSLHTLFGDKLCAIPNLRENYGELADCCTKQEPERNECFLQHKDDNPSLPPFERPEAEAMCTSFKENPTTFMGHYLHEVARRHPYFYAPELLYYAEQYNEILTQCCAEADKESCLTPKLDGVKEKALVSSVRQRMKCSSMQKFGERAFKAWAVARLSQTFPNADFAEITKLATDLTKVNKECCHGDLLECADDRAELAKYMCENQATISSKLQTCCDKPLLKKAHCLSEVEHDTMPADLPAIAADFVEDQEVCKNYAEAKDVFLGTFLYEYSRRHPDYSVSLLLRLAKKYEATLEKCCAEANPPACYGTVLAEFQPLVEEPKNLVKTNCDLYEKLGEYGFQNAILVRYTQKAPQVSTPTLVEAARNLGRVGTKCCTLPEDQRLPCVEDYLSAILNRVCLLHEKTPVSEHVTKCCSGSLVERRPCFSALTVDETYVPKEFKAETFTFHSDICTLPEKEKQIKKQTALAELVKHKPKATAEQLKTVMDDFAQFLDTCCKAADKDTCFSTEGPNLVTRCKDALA

IC50 [1]: 188 nM | IC50 [2]: 3200 nM | IC50 [3]: 2480 nM
Binder: RLMEDICLARWGCLWEDD (modifications not checked) [SA13]
